Here are results for 11 molecules from patent US20210024646A1 (published 2021).

Assay [1] deals with T1, extracellular domain of human CD73 protein (CD73-ECD), C-terminus polyhistidine-tagged (UniProt P21589 27-547).
T1 chain: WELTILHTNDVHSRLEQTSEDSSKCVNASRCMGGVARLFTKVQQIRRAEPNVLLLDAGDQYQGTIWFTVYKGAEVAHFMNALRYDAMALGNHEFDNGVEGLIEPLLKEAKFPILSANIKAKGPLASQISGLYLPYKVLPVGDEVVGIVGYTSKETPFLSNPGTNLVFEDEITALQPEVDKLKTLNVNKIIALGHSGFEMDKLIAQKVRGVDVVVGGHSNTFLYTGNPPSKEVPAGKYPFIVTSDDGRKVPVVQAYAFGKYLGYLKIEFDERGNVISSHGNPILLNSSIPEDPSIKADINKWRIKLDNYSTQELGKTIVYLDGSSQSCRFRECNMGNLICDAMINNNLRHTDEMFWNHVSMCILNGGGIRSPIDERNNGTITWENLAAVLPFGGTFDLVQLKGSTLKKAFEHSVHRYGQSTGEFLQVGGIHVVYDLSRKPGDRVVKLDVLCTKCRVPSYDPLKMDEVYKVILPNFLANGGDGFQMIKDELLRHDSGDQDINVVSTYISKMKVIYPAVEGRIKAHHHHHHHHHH
In words: ELISA. On the technique in general: An ELISA detects its analyte on a solid surface through an enzyme-linked reagent.

Assay [2] has as its target T2, Carbon-terminal polyhistidine-labeled recombinant cynomolgus monkey CD73 enzyme (cynomolgus monkey, UniProt A0A2K5V5U7 1-547).
T2 chain: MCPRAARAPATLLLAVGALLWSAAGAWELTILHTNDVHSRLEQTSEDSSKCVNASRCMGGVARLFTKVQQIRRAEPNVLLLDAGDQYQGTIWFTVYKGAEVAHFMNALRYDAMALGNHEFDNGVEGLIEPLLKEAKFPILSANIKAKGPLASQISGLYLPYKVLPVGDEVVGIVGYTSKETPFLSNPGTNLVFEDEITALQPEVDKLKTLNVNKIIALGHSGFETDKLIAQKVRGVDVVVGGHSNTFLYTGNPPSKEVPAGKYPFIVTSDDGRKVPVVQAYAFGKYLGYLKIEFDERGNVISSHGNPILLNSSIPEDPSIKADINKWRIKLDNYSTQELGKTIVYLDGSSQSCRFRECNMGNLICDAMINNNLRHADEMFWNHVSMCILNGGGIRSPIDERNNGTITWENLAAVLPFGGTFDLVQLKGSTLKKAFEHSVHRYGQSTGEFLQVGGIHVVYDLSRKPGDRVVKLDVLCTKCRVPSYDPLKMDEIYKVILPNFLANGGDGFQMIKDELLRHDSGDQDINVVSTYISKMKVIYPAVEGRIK
In words: enzyme inhibition; right table.

The target of assay [3] is T1, extracellular domain of human CD73 …. In words: enzyme inhibition; right table.
The target in assay [4] is T3, CD73 on the surface of human tumor cells (human, UniProt P21589 27-549).
T3 chain: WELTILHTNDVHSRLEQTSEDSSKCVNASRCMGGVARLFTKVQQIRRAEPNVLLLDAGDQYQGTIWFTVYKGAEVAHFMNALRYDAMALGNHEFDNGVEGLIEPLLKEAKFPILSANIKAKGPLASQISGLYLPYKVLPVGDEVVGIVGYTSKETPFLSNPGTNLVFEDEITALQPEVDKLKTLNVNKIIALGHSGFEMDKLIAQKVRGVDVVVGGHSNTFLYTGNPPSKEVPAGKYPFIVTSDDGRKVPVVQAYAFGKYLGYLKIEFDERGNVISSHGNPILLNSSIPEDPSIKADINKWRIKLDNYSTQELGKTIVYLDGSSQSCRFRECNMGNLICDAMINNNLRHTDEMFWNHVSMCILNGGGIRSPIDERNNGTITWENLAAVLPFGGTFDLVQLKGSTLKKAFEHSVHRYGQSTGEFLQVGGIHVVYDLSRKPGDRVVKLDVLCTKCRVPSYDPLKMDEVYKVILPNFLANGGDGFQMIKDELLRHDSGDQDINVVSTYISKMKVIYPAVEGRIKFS
In words: inhibition of cell-surface CD73 enzyme activity; right panel.

In assay [5] the target is T3, CD73 on the surface of human tumor cells. The experiment in a line: FACS; NCI-H1299 cells, right table. For orientation: A flow cytometer gives signals particle by particle.
Assay [6] shares this target. In words: FACS; MDA-MB-231 cells, right table.
The target is the same in assay [7]. The experiment in a line: FACS; NCI-H1299 cells, left table.
Assay [8] shares this target. In words: inhibition of cell-surface CD73 enzyme activity; left panel.
Assay [9] concerns the target T2, Carbon-terminal polyhistidine-labeled …. In words: enzyme inhibition; left table.
Assay [10] deals with T3, CD73 on the surface of human tumor cells. The experiment in a line: FACS; MDA-MB-231 cells, left table.
Assay [11] has the same target. In words: FACS; MDA-MB-231 cells, right table.
For assay [12] the target is unchanged. The experiment in a line: FACS; NCI-H1299 cells, right table.
The target is the same in assay [13]. In words: FACS; NCI-H1299 cells, left table.
For assay [14] the target is unchanged. The experiment in a line: FACS; MDA-MB-231 cells, left table.
Assay [15] has as its target T1, extracellular domain of human CD73 …. The experiment in a line: enzyme inhibition; left table.

Positions count from the first letter of the chain named. “And” between values parts separate entries of the source, which are not always exact repeats. Identical values can stand only once.

B1: Hu002c-10 (antibody, V domains shown)
VH: QVQLVQSGAEVKKPGASVKVSCKASGYTLTSYWMHWVRQAPGQGLEWIGEINPSQGRSNYNEKFKSKVTLTVDRSTSTVYMELSSLRSEDTAVYYCARRGVSGNYFDYWGQGTLVTVSS
VL: DIQMTQSPSSLSASVGDRVTITCKASQDINTYLSWFQQKPGKAPKSLIYRSNILVSGVPSRFSGSGSGQDYTLTISSLQPEDFATYYCLQYDEFPYTFGQGTKLEIK
As a reminder, the EC50 is the concentration that produces a half-maximal response. Usually IC50 stands for the point on the concentration scale where inhibition reaches its midpoint. As for B1, the half-maximal effective concentration (EC50) stood at 0.093 nM in assay [1], 0.758 nM in assay [5] and 0.702 nM in [6]. Moreover, the IC50 in assay [2] came to 0.059 nM; in assay [3], 0.059 nM; in assay [4] it was 0.441 nM.

B2: Hu002c-12 (antibody, V domains shown)
VH: B1 VH
VL: DIQMTQSPSSLSASVGDRVTITCKASQDINTYLSWFQQKPGKSPKSLIYRSNILVSGVPSRFSGSGSGQDYTLTISSLQPEDFAIYYCLQYDEFPYTFGGGTKLEI
Take B2: the figures for the EC50 in assay [1], in [5] and in assay [6] were 0.083 nM, 0.82 nM and 0.715 nM, respectively. Further, the IC50 amounted to 0.058 nM in assay [2], 0.057 nM in [3] and 0.498 nM in assay [4].

B3: Hu002c-14 (antibody, V domains shown)
VH: B1 VH with R38K, Q39K
VL: B1 VL
As to B3, the EC50 in assay [1] is 0.101 nM; in assay [5] it was 0.822 nM; in [6], 0.642 nM. Further, the IC50 in assay [2] stood at 0.056 nM; in [3], 0.058 nM; in [4], 0.437 nM.

B4: Hu002c-11 (antibody, V domains shown)
VH: B1 VH
VL: B1 VL with A43S, Q100G
In the case of B4, the EC50 in assay [1] was 0.095 nM; in assay [5] it was 0.774 nM; in [6], 0.693 nM. Further, the values for the IC50 in [2], in assay [3] and in [4] were 0.065 nM, 0.06 nM and 0.445 nM, respectively.

B5: mAb002c-VH-QG/VK-SG (antibody, V domains shown)
VH: QVQLQQPGAELVKPGASVRLSCKASGYTLTSYWMHWVKKRPGQGLEWIGEINPSQGRSNYNEKFKSKATLTVDRSSSTVYMQLGSLTSEDSAVYYCARRGVSGNYFDYWGQGTTLTVSS
VL: DIKMTQSPSSMYASLGERVTMTCKASQDINTYLSWFQQKPGKSPKTLIYRSNILVSGVPSRFSGSRSGQDYYLTITSLEYEDMGIYYCLQYDEFPYTFGGGTKLELK
For B5, the EC50 in [1] was 0.096 nM and 0.103 nM; in [7], 0.73 nM; in assay [5], 0.573 nM; in assay [10], 0.557 nM; in assay [6] it was 0.557 nM. Besides, the IC50 in [8] was determined as 0.448 nM; in assay [9], 0.044 nM; in [2], 0.055 nM; in assay [4], 0.429 nM.

B6: Hu001c-31 (antibody, V domains shown)
VH: QVQLVQSGAEVKKPGASVKVSCKASGYTFTNYYIYWVRQAPGQRLEWIGWIYPGNLNIKYNEKFKGRSTLTADKSASTAYMELSSLRSEDTAVYYCARDDNYAWFAYWGQGTLVTVSS
VL: DIQMTQSPSSLSASVGDRVTITCKASQDVSTAVAWYQQKPGKAPKLLIYWTNTRHTGVPSRFSGSGSGTDHTLTISSLQPEDFATYYCQQHYSTPFTFGQGTKLEIK
As to B6, the EC50 was 0.109 nM in [1], 0.514 nM in [11] and 1.24 nM in assay [12]. The IC50 worked out at 0.28 nM in assay [2] and 0.12 nM in [3].

B7: Hu001c-28 (antibody, V domains shown)
VH: B6 VH with A24T, R38K, A40R, R44G, S68V, L70I
VL: B6 VL with A43S
Turning to B7, the values for the EC50 in assay [1], in [13] and in assay [14] were 0.037 nM, 1.41 nM and 0.446 nM, respectively. The IC50 in assay [9] and in assay [15] was 0.03 nM in each case.

B8: Hu001c-24 (antibody, V domains shown)
VH: B6 VH with A24T, R38K, A40R, R44G, S68V, L70I
VL: B6 VL
Turning to B8, the results for the EC50 in assay [1], in assay [13] and in [14] were 0.026 nM, 1.28 nM and 0.432 nM, respectively. For the same molecule, the IC50 in [9] is 0.04 nM; in assay [2], 0.04 nM; in [3], 0.03 nM; in assay [15], 0.02 nM.

B9: Hu001c-21 (antibody, V domains shown)
VH: B6 VH with S68V, L70I
VL: B6 VL
For B9, the figures for the EC50 in assay [1] and in assay [14] were 0.02 nM and 0.205 nM, respectively. The values for the IC50 in assay [9] and in assay [15] were 0.37 nM and 0.12 nM, respectively.

B10: Hu001c-25 (antibody, V domains shown)
VH: B6 VH with S68V, L70I
VL: B6 VL with A43S
Consider B10, for which the EC50 in assay [1] was found to be 0.033 nM; in assay [14], 0.435 nM. Besides, the IC50 was 0.34 nM in assay [9] and 0.3 nM in assay [15].

B11: Hu001c-22 (antibody, V domains shown)
VH: B6 VH with R38K, A40R, S68V, L70I
VL: B6 VL
B11: the EC50 came out at 0.032 nM in assay [1], 1.42 nM in assay [13] and 0.522 nM in assay [14]. For the same molecule, the IC50 in [9] was determined as 0.08 nM; in assay [15], 0.03 nM.
